The target of this test is Human placental collagen, type III (Sigma) (human) (UniProt P02461). Description: cell-based or functional assay.
UniProt P02461, sequence (P02461 154-1221): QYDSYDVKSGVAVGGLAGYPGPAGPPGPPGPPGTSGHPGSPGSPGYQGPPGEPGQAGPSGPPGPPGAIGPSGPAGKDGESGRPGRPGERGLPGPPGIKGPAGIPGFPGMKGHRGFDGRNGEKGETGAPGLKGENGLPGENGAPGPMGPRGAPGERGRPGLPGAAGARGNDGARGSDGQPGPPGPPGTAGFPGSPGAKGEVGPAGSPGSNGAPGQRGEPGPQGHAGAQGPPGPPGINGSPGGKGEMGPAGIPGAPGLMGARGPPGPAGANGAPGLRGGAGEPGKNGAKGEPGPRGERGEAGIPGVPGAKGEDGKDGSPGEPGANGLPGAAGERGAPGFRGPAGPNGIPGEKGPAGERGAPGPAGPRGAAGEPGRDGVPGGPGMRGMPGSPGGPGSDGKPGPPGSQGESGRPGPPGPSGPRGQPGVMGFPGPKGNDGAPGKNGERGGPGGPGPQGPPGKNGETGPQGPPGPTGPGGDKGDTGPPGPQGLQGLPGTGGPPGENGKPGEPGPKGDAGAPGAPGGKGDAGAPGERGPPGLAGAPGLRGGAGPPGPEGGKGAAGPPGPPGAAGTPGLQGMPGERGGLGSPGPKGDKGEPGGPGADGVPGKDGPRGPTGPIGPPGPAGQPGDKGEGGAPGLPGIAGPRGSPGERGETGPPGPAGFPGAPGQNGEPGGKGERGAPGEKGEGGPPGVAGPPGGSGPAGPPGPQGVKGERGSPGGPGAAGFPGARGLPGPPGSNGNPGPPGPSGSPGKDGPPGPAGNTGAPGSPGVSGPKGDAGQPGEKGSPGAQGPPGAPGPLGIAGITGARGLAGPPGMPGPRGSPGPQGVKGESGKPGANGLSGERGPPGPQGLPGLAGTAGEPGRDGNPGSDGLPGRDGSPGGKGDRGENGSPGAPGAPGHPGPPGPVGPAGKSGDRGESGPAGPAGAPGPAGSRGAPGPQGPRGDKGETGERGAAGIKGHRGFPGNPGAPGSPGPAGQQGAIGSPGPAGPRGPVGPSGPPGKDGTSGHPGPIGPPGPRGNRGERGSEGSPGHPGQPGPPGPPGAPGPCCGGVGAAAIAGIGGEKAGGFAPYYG

For the substance “Saratin (protein isolated from the saliva of the leech Hirudo medicinalis; 103 amino acids)”, the platelet binding on collagen type III coated surface pretreated with Saratin, whole human blood under flow (shear rate 1300 s-1) was 80% and the reduction in platelet deposition on collagen type III coated coverslips at a shear rate of 1300 s-1 turned out to be 81%.

For the origin of these results see US20060094079A1.
